According to IntAct's records for PubMed 22020126:

B1: Histone acetyltransferase ESA1 (Saccharomyces cerevisiae), Q08649 (parent)
chain: MSHDGKEEPGIAKKINSVDDIIIKCQCWVQKNDEERLAEILSINTRKAPPKFYVHYVNYNKRLDEWITTDRINLDKEVLYPKLKATDEDNKKQKKKKATNTSETPQDSLQDGVDGFSRENTDVMDLDNLNVQGIKDENISHEDEIKKLRTSGSMTQNPHEVARVRNLNRIIMGKYEIEPWYFSPYPIELTDEDFIYIDDFTLQYFGSKKQYERYRKKCTLRHPPGNEIYRDDYVSFFEIDGRKQRTWCRNLCLLSKLFLDHKTLYYDVDPFLFYCMTRRDELGHHLVGYFSKEKESADGYNVACILTLPQYQRMGYGKLLIEFSYELSKKENKVGSPEKPLSDLGLLSYRAYWSDTLITLLVEHQKEITIDEISSMTSMTTTDILHTAKTLNILRYYKGQHIIFLNEDILDRYNRLKAKKRRTIDPNRLIWKPPVFTASQLRFAW
B2: Histone acetyltransferase KAT8 (Homo sapiens), Q9H7Z6 (parent)
chain: MAAQGAAAAVAAGTSGVAGEGEPGPGENAAAEGTAPSPGRVSPPTPARGEPEVTVEIGETYLCRRPDSTWHSAEVIQSRVNDQEGREEFYVHYVGFNRRLDEWVDKNRLALTKTVKDAVQKNSEKYLSELAEQPERKITRNQKRKHDEINHVQKTYAEMDPTTAALEKEHEAITKVKYVDKIHIGNYEIDAWYFSPFPEDYGKQPKLWLCEYCLKYMKYEKSYRFHLGQCQWRQPPGKEIYRKSNISVYEVDGKDHKIYCQNLCLLAKLFLDHKTLYFDVEPFVFYILTEVDRQGAHIVGYFSKEKESPDGNNVACILTLPPYQRRGYGKFLIAFSYELSKLESTVGSPEKPLSDLGKLSYRSYWSWVLLEILRDFRGTLSIKDLSQMTSITQNDIISTLQSLNMVKYWKGQHVICVTPKLVEEHLKSAQYKKPPITVDSVCLKWAPPKHKQVKLSKK

Variants of: B1
Settings: with h4_yeast HHF1, P02309

Row | Variant | effect of a mutation on the interaction
1 | MSHDGKEEPGIAKKINSVDDIIIKCQCWVQKNDEERLAEILSINTRKAPPKFYVHYVNYNKRLDEWITTDRINLDKEVLYPKLKATDEDNKKQKKKKATNTSETPQDSLQDGVDGFSRENTDVMDLDNLNVQGIKDENISHEDEIKKLRTSGSMTQNPHEVARVRNLNRIIMGKYEIEPWYFSPYPIELTDEDFIYIDDFTLQYFGSKKQYERYRKKCTLRHPPGNEIYRDDYVSFFEIDGRKQRTWCRNLCLLSKLFLDHRTLYYDVDPFLFYCMTRRDELGHHLVGYFSKEKESADGYNVACILTLPQYQRMGYGKLLIEFSYELSKKENKVGSPEKPLSDLGLLSYRAYWSDTLITLLVEHQKEITIDEISSMTSMTTTDILHTAKTLNILRYYKGQHIIFLNEDILDRYNRLKAKKRRTIDPNRLIWKPPVFTASQLRFAW [K262R] | disrupting interaction

Variants of: B1
Settings: with h4_yeast HHF1, P02309
Remark: another data set of the same source

Row | Variant | effect of a mutation on the interaction
2 | MSHDGKEEPGIAKKINSVDDIIIKCQCWVQKNDEERLAEILSINTRKAPPKFYVHYVNYNKRLDEWITTDRINLDKEVLYPKLKATDEDNKKQKKKKATNTSETPQDSLQDGVDGFSRENTDVMDLDNLNVQGIKDENISHEDEIKKLRTSGSMTQNPHEVARVRNLNRIIMGKYEIEPWYFSPYPIELTDEDFIYIDDFTLQYFGSKKQYERYRKKCTLRHPPGNEIYRDDYVSFFEIDGRKQRTWCRNLCLLSKLFLDHATLYYDVDPFLFYCMTRRDELGHHLVGYFSKEKESADGYNVACILTLPQYQRMGYGKLLIEFSYELSKKENKVGSPEKPLSDLGLLSYRAYWSDTLITLLVEHQKEITIDEISSMTSMTTTDILHTAKTLNILRYYKGQHIIFLNEDILDRYNRLKAKKRRTIDPNRLIWKPPVFTASQLRFAW [K262A] | disrupting interaction

Variants of: B1
Settings: with h4_yeast HHF1, P02309
Remark: another data set of the same source

Row | Variant | effect of a mutation on the interaction
3 | MSHDGKEEPGIAKKINSVDDIIIKCQCWVQKNDEERLAEILSINTRKAPPKFYVHYVNYNKRLDEWITTDRINLDKEVLYPKLKATDEDNKKQKKKKATNTSETPQDSLQDGVDGFSRENTDVMDLDNLNVQGIKDENISHEDEIKKLRTSGSMTQNPHEVARVRNLNRIIMGKYEIEPWYFSPYPIELTDEDFIYIDDFTLQYFGSKKQYERYRKKCTLRHPPGNEIYRDDYVSFFEIDGRKQRTWCRNLCLLSKLFLDHQTLYYDVDPFLFYCMTRRDELGHHLVGYFSKEKESADGYNVACILTLPQYQRMGYGKLLIEFSYELSKKENKVGSPEKPLSDLGLLSYRAYWSDTLITLLVEHQKEITIDEISSMTSMTTTDILHTAKTLNILRYYKGQHIIFLNEDILDRYNRLKAKKRRTIDPNRLIWKPPVFTASQLRFAW [K262Q] | decreasing interaction

Variants of: B2
Settings: with h4_yeast HHF1, P02309

Row | Variant | effect of a mutation on the interaction
4 | MAAQGAAAAVAAGTSGVAGEGEPGPGENAAAEGTAPSPGRVSPPTPARGEPEVTVEIGETYLCRRPDSTWHSAEVIQSRVNDQEGREEFYVHYVGFNRRLDEWVDKNRLALTKTVKDAVQKNSEKYLSELAEQPERKITRNQKRKHDEINHVQKTYAEMDPTTAALEKEHEAITKVKYVDKIHIGNYEIDAWYFSPFPEDYGKQPKLWLCEYCLKYMKYEKSYRFHLGQCQWRQPPGKEIYRKSNISVYEVDGKDHKIYCQNLCLLAKLFLDHATLYFDVEPFVFYILTEVDRQGAHIVGYFSKEKESPDGNNVACILTLPPYQRRGYGKFLIAFSYELSKLESTVGSPEKPLSDLGKLSYRSYWSWVLLEILRDFRGTLSIKDLSQMTSITQNDIISTLQSLNMVKYWKGQHVICVTPKLVEEHLKSAQYKKPPITVDSVCLKWAPPKHKQVKLSKK [K274A] | disrupting interaction

Variants of: B2
Settings: with h4_yeast HHF1, P02309
Remark: another data set of the same source

Row | Variant | effect of a mutation on the interaction
5 | MAAQGAAAAVAAGTSGVAGEGEPGPGENAAAEGTAPSPGRVSPPTPARGEPEVTVEIGETYLCRRPDSTWHSAEVIQSRVNDQEGREEFYVHYVGFNRRLDEWVDKNRLALTKTVKDAVQKNSEKYLSELAEQPERKITRNQKRKHDEINHVQKTYAEMDPTTAALEKEHEAITKVKYVDKIHIGNYEIDAWYFSPFPEDYGKQPKLWLCEYCLKYMKYEKSYRFHLGQCQWRQPPGKEIYRKSNISVYEVDGKDHKIYCQNLCLLAKLFLDHRTLYFDVEPFVFYILTEVDRQGAHIVGYFSKEKESPDGNNVACILTLPPYQRRGYGKFLIAFSYELSKLESTVGSPEKPLSDLGKLSYRSYWSWVLLEILRDFRGTLSIKDLSQMTSITQNDIISTLQSLNMVKYWKGQHVICVTPKLVEEHLKSAQYKKPPITVDSVCLKWAPPKHKQVKLSKK [K274R] | disrupting interaction
